Substitutions are numbered along the chain they refer to. Each block holds one binder with its values, some of them ahead of it.
Experiments:
[1] = biological target: T1, cynomolgus monkey CD19 on peripheral blood B cells (cynomolgus monkey (Macaca fascicularis), UniProt A0A2K5W8L9 20-557); assay: FACS, cynomolgus PBMC, CD20+ B cells
T1 construct: whole, on cells; also called cynomolgus monkey B cells
T1 sequence: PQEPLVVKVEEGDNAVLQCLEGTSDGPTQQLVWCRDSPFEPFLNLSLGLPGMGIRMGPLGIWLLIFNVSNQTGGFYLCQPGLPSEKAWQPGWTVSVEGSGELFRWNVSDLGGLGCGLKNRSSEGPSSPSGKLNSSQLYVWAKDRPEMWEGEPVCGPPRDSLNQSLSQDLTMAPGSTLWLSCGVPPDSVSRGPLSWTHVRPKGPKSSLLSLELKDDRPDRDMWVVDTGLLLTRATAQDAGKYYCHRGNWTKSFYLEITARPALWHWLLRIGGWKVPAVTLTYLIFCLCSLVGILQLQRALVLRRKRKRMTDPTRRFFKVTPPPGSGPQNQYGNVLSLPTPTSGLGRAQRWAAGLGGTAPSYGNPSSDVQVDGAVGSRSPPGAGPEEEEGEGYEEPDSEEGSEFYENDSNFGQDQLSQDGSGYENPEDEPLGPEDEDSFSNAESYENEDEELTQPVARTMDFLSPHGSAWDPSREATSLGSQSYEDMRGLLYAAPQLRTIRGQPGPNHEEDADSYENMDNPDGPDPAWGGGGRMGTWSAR
Protocol: The monkey peripheral blood mononuclear cells were extracted from fresh cynomolgus monkey peripheral blood (purchased from Shanghai Medicilon Inc.) according to the instructions of Ficoll-Paque Plus (purchased from GE Healthcae, catalog number: 171440-02). After the cell suspension was centrifuged, the cells were resuspended in PBS containing 1% BSA, and then the cells were counted. […] The mixture was incubated for 1 h at room temperature. After washing the cells three times, APC-labeled secondary antibody anti-human IgG Fc (catalog number: 409306, purchased from Biolegend) was added. After incubation at room temperature in the dark for 30 minutes, the cells were washed 5 times, gently resuspended with PBS containing 1% BSA, and detected and analyzed by FACS (FACS Canto™, purchased from BD Company), in which CD20 was used as a marker of B cells to gate the CD20-positive B cell population, the proportion of the chimeric antibody-labeled positive cells was analyzed, and the proportion of the chimeric antibody positive cell population to B cell population was calculated after treatments with the chimeric antibodies at the concentrations of 100 nM, 10 nM and 1 nM, respectively.

[2] = biological target: T2, human CD19 on Raji cells (human, UniProt P15391 20-556); assay: FACS on Raji cells
T2 construct: whole, on cells
T2 sequence (looked up): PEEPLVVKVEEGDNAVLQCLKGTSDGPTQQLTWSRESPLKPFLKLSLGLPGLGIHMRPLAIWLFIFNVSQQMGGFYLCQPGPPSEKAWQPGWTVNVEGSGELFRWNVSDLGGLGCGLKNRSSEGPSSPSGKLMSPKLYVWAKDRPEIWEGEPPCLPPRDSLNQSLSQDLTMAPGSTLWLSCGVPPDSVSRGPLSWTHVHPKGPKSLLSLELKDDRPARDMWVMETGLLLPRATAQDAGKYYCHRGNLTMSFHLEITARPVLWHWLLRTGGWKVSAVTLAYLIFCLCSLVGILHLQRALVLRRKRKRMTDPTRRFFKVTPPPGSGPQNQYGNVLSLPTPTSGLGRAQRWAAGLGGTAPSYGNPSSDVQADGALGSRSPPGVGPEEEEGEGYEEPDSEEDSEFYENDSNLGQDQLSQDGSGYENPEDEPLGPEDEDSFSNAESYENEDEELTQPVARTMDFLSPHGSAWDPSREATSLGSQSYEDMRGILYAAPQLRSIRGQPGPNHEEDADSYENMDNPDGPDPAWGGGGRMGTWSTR

[3] = biological target: T3, human CD19 on CHO-K1-human CD19 cells (human, UniProt P15391 20-556); assay: FACS on CHO-K1-human CD19 cells
T3 construct: whole, on cells; also called CHO-K1-human CD19-2C8
T3 sequence (looked up): T2 sequence (looked up)

[4] = biological target: T4, monkey CD19 on HEK293T-monkey CD19 cells (monkey); assay: FACS on HEK293T-monkey CD19 cells
T4 construct: whole, on cells
Outline: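 Cells blocked in PBS + 2% (w/w) BSA at 2×10⁶ cells/ml, then incubated with test antibody on ice for 2 h. After washes, binding read by flow cytometry as mean fluorescence intensity (MFI). EC50 from fitted MFI curves. Parental HEK293T cells run by the same method.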

B4: F3.74.4 (antibody, human IgG1, V domains shown)
VH: QVQLQQSGAELVRPGASVTLSCKASGYTFTDYEMHWVKQTPVHGLEWIGGIAPETGLTTYNQKFEDKAILTADKSSRTAYMELRSLTSEDSAVYFCNPNNYGLWGTGTTVTVSS
VL: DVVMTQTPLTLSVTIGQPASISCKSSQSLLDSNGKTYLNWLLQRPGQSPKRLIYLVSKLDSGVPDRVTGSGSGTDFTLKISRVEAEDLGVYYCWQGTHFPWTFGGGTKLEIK
notes: human-murine chimeric antibody, human IgG1
Proportion of chimeric antibody positive cells to B cells (%) at 1 nM [1]: 1%
Proportion of chimeric antibody positive cells to B cells (%) at 10 nM [1]: 1%
Proportion of chimeric antibody positive cells to B cells (%) at 100 nM [1]: 1%
EC50 [2]: 3.41 nM
Maximum mean fluorescence intensity [2]: 30100
EC50 [3]: 4.55 nM
Maximum mean fluorescence intensity [3]: 3850
Maximum mean fluorescence intensity [4]: 121

B5: F3.13.2 (antibody, human IgG1, V domains shown)
VH: DVQLQESGPGLMKPSQSLSLTCSVTGYSITSGYYWNWIRQFPGNKLEWMGYISYDGSNNYNPSLKNRFSITRDTSKNQFFLKLNSVTTEDTATYYCARRKLTGGPYFDYWGQGTTLTVSS
VL: DIVLTQSPASLAVTLGQRATISCRASESVSFHGFHIMHWYQQKPGQPPKLLIYAASHLVSGVPDRFSGSGSETDFTLNIHPVEEEDAAAYFCQQSVEDPWTFGGGTKLEIK
notes: as for B4
Proportion of chimeric antibody positive cells to B cells (%) at 1 nM [1]: 1%
Proportion of chimeric antibody positive cells to B cells (%) at 10 nM [1]: 3%
Proportion of chimeric antibody positive cells to B cells (%) at 100 nM [1]: 8%
EC50 [2]: 5.24 nM
Maximum mean fluorescence intensity [2]: 27100
EC50 [3]: 2.46 nM
Maximum mean fluorescence intensity [3]: 43900
EC50 [4]: 2.64 nM
Maximum mean fluorescence intensity [4]: 66400

Stronger by EC50 [2], values ahead:

Proportion of chimeric antibody positive cells to B cells (%) at 1 nM [1]: 16%
Proportion of chimeric antibody positive cells to B cells (%) at 10 nM [1]: 27%
Proportion of chimeric antibody positive cells to B cells (%) at 100 nM [1]: 49%
EC50 [2]: 1.18 nM
Maximum mean fluorescence intensity [2]: 30300
EC50 [3]: 2.47 nM
Maximum mean fluorescence intensity [3]: 56700
EC50 [4]: 5.57 nM
Maximum mean fluorescence intensity [4]: 175000
B2: F3.126.15 (antibody, human IgG1, V domains shown)
VH: QVQLQQPGAELVMPGASVKLSCKASGYTFTSYWMHWVKQRPGQGLEWIGEIDPSDSYTTYNQNFKGKATLTVDISTSTAYIQLSNLTSEDSAVYYCARLTGNYIHYWGQGTTLTVSS
VL: DIVMTQSHKFMSTSVGDRVSITCKASQDVSPAVAWYQQRPGQCPKLLIFSSSYRSTGVPDRFTGSGSGTDFTFTISSVQAEDLAVYYCQQHYSLPLTFGAGTKLELK
notes: as for B4

Proportion of chimeric antibody positive cells to B cells (%) at 1 nM [1]: 7%
Proportion of chimeric antibody positive cells to B cells (%) at 10 nM [1]: 16%
Proportion of chimeric antibody positive cells to B cells (%) at 100 nM [1]: 38%
EC50 [2]: 0.68 nM
Maximum mean fluorescence intensity [2]: 31300
EC50 [3]: 1.27 nM
Maximum mean fluorescence intensity [3]: 59600
EC50 [4]: 3.44 nM
Maximum mean fluorescence intensity [4]: 153000
B1: F3.81.2 (antibody, human IgG1, V domains shown)
VH: QVQLQQPGAELVMPGASVKLSCKASAYTFTNYWMHWVKQRPGHGLEWIGEIDPSDSYTDYNQNFKAKATLTVDKSSSTAYMQLSSLTSEDSAVYYCARLMGRYFDVWGTGTTVTVSS
VL: B2 VL with P31A, R39K, C43S, F49N, S51A, S55Y, L94T, K107R
notes: as for B4

Proportion of chimeric antibody positive cells to B cells (%) at 1 nM [1]: 1%
Proportion of chimeric antibody positive cells to B cells (%) at 10 nM [1]: 1%
Proportion of chimeric antibody positive cells to B cells (%) at 100 nM [1]: 1%
EC50 [2]: 0.44 nM
Maximum mean fluorescence intensity [2]: 29900
EC50 [3]: 0.57 nM
Maximum mean fluorescence intensity [3]: 3980
Maximum mean fluorescence intensity [4]: 148
B3: F3.109.1 (antibody, human IgG1, V domains shown)
VH: EVQLQQSGAELVRPGSSVKMSCKTSGYTFTSYGINWVKQRPGQGLEWIGYIYIGNDYTEFNEKFKGKATLTSDTSSSTAYMQLSSLTSEDSAIYFCARFYSNSDPMDYWGHGTSVTVSS
VL: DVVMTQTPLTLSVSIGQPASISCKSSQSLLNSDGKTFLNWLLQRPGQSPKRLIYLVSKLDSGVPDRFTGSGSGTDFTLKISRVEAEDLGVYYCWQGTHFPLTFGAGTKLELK
notes: as for B4
